From US20190055312A1 (CELL MEDICA, published 2019)
Values joined by “and” are separate entries in the source; they are usually repeats but may differ in a detail not shown here. Identical values can stand only once.

Tests used:
[1] = target: T1, recombinant human (rh) PD-L1 Fc fusion (RnD Systems, USA, cat. no. 156-B7) (human, UniProt Q9NZQ7 19-239); assay: competition ELISA, rhPD-L1 Fc fusion coated, displacement of biotinylated PD-1 Fc fusion
T1 construct: Bought reagent; also called human PD-L1 Fc fusion; not shown: Fc part of the bought fusion
T1 sequence (Q9NZQ7 19-239 limits assumed): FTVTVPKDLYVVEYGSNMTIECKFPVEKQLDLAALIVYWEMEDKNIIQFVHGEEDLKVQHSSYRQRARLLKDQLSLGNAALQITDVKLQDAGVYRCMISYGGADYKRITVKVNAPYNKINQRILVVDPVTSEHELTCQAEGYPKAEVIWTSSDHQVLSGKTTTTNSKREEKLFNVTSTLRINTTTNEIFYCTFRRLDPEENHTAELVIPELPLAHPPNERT
Description: Plates were blocked with 1% BSA and 0.05% Tween-20 in PBS, pH7.4. A serial dilution of IgGs was prepared, with eleven 1:3 dilutions starting at 1 mcg/mL, and added to plates. […] The ELISA was developed with TMB ELISA substrate solution (eBioscience, USA, cat. no. 00-4201-56).

[2] = target: T2, human PD-L1-His (BioVision, USA, cat. no. 7429) (human, UniProt Q9NZQ7 19-238, limits assumed); assay: KinExA in solution, human PD-L1-His titrated against constant IgG, n-curve analysis
T2 construct: Bought reagent without Fc tag, chosen to avoid avidity; also called His tagged PD-L1; not shown: His tag
T2 sequence (Q9NZQ7 19-238 limits assumed): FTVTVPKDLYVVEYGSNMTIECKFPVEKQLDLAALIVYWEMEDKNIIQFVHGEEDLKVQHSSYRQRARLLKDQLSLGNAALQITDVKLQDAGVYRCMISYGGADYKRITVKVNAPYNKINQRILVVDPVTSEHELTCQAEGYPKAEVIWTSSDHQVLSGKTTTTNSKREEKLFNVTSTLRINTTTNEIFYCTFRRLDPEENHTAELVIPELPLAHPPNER
Description: All steps were carried out at room temperature. […] This voltage signal is used to calculate the KD value and activity of the scFv using the “n-curve analysis” of the KinExA® Pro software version 4.1.9 or 4.2.10 (FIG. 5) using the option “titrant as analysis concentration reference”.
These mixtures were incubated for 5 hours.

[3] = target: T2, human PD-L1-His (BioVision, USA, cat. …); assay: ratio of KinExA KD values (scFv1 on PD-L1 Fc fusion as reference)
[4] = target: T3, mouse PD-L1 Fc fusion (Sino Biological, China, cat. no. 50010-M03H or RnD Systems, USA, cat. no. 1019-B7-100) (Mus musculus, UniProt Q9EP73 19-238); assay: binding ELISA, mouse PD-L1 Fc fusion coated, Protein L-HRP detection
T3 construct: Two bought reagents were used; not shown: Fc part of the bought fusion
T3 sequence (Q9EP73 19-238 limits assumed, stated change not applied): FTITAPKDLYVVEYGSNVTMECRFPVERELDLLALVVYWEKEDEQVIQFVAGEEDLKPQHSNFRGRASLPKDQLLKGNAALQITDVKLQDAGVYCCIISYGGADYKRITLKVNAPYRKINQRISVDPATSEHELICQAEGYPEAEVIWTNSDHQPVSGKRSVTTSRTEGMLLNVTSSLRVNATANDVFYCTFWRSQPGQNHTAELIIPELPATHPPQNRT

[5] = target: T1, recombinant human (rh) PD-L1 Fc fusion …; assay: KinExA in solution, room temperature, PD-L1 Fc fusion titrated against constant scFv1, n-curve analysis
Description: (§1) Duplicate measurements were prepared for each data point. […] These mixtures were incubated for 5 hours. […] These mixtures were incubated for 9 hours. […] All steps were carried out at room temperature. […] This voltage signal is used to calculate the KD value and activity of the scFv using the “n-curve analysis” of the KinExA® Pro software version 4.1.9 or 4.2.10 (FIG. 5) using the option “titrant as analysis concentration reference”.

[6] = target: T1, recombinant human (rh) PD-L1 Fc fusion …; assay: binding ELISA: coated rhPD-L1 Fc fusion, scFv1 in human serum, 0 h at 37 C, detected with Protein L-HRP
Description: (§2) After blocking with PBS, pH7.4 with, 1% BSA and 0.05% Tween-20, a series of 1:3 dilutions of 2.5 mcg/ml to 42 ng/mL serum/scFv samples was added to the ELISA plates in duplicate. […] The ELISA was developed with TMB ELISA substrate solution (eBioscience, USA, cat. no. 00-4201-56).

[7] = target: T1, recombinant human (rh) PD-L1 Fc fusion …; assay: competition ELISA: coated rhCD80-His, scFv titrated against constant 50 nM rhPD-L1 Fc fusion, bound PD-L1 Fc detected with anti-human IgG Fc-HRP
Description: Plates were blocked with 1% BSA and 0.05% Tween-20 in PBS, pH7.4. […] This mixture was incubated with the CD80 coated plates for 2 hours at room temperature. […] The ELISA was developed with TMB ELISA substrate solution (eBioscience, USA, cat. no. 00-4201-56).

[8] = target: T1, recombinant human (rh) PD-L1 Fc fusion …; assay: binding ELISA: coated rhPD-L1 Fc fusion, scFv1 in human serum, 20 h at 37 C, detected with Protein L-HRP
Description: as §2

[9] = target: T1, recombinant human (rh) PD-L1 Fc fusion …; assay: binding ELISA: coated rhPD-L1 Fc fusion, scFv1 in human serum, 4 h at 37 C, detected with Protein L-HRP
Description: as §2

[10] = target: T4, natural form of PD-L1 expressed on the surface of ES-2 cells (human, UniProt Q9NZQ7 19-290); assay: KinExA, ES-2 cells titrated against 50 pM scFv1, room temperature
T4 construct: whole, on cells; also called cell surface PD-L1; human natural form of PD-L1
T4 sequence (Q9NZQ7 19-290): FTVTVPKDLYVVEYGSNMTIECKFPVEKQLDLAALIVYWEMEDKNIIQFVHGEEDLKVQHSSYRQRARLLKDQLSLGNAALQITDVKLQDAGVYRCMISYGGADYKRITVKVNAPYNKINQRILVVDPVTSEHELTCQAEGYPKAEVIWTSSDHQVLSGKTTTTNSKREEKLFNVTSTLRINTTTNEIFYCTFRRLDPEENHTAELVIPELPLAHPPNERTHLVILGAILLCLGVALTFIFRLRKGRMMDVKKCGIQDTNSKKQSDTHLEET
Description: as §1
These mixtures were incubated for 5 hours, centrifuged for 10 minutes at 3800×g, and supernatants were transferred to fresh tubes. […] All steps were carried out at room temperature.

[11] = target: T5, rat PD-L1 Fc fusion (Sino Biological, China, cat. no. 80450-R02H) (Rattus norvegicus (Norway rat), UniProt D4AE25 19-239); assay: binding ELISA: coated rat PD-L1 Fc fusion, detected with Protein L-HRP
T5 construct: Bought reagent; not shown: Fc part (and any linker) of the bought Sino Biological 80450-R02H fusion
T5 sequence (D4AE25 entry or part of it R02H R02H limits assumed): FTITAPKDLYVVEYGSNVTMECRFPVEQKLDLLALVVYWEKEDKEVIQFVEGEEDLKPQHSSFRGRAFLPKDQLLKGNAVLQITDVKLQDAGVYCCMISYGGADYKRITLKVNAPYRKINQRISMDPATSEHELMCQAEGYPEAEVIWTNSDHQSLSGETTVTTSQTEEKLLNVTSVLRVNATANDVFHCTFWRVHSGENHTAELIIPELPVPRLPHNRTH
Description: Plates were blocked with 1% BSA and 0.5% Tween-20 in PBS, pH7.2. A serial dilution of scFvs was prepared with concentrations of 1 mcg/mL, 333 ng/mL and 111 ng/mL and added to plates. […] Development was with TMB ELISA substrate solution (eBioscience, USA, cat. no. 00-4201-56).

[12] = target: PD-L1 expressing CHO cells (Promega, CS187103) (human, UniProt Q9NZQ7 19-290); assay: cell-based or functional assay
PD-L1 expressing CHO cells (Promega, CS187103), sequence (Q9NZQ7 19-290): as the sequence (Q9NZQ7 19-290) above

[13] = target: T6, rhPD-L2 Fc fusion (RnD Systems, USA, cat. no. 1224-PL) (human, UniProt Q9BQ51 20-219); assay: binding ELISA, rhPD-L2 Fc fusion coated, Protein L-HRP detection
T6 construct: Bought reagent; also called human PD-L2; not shown: Fc part of the bought fusion
T6 sequence (looked up): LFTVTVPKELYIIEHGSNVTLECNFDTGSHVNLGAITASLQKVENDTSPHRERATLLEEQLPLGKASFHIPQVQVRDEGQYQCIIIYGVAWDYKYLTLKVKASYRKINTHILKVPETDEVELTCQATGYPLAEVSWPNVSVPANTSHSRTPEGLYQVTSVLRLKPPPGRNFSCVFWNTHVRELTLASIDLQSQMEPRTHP
Description: (§3) Plates were blocked with 1% BSA and 0.5% Tween-20 in PBS, pH7.2. A serial dilution of scFvs was prepared with concentrations of 5, 1 and 0.2 mcg/mL and added to plates.

[14] = target: T7, rhB7-H3 Fc fusion (RnD Systems, USA, cat. no. 1027-B3) (human, UniProt Q5ZPR3-2 29-245, limits assumed); assay: binding ELISA, rhB7-H3 Fc fusion coated, Protein L-HRP detection
T7 construct: Bought reagent; also called human B7-H3; not shown: Fc part of the bought fusion
T7 sequence (looked up): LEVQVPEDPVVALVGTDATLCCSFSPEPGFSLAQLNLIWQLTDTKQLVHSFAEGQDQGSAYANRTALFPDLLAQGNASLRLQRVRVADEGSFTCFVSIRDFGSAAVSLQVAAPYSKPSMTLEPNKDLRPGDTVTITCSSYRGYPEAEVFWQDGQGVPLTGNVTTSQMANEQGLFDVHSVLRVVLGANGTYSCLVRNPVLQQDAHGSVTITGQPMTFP
Description: as §3

[15] = target: monkey PD-L1 Fc fusion (Sino Biological, China, cat. no. 90251-C02H) (Rhesus macacque (Macaca mulatta)) (UniProt F6PJN1); assay: KinExA in solution, room temperature, monkey PD-L1 Fc fusion titrated against constant scFv1, n-curve analysis
[16] = target: monkey PD-L1 Fc fusion (Sino Biological, China, cat. no. 90251-C02H) (Rhesus macacque (Macaca mulatta)) (UniProt F6PJN1); assay: ratio of KinExA KD values (human PD-L1 Fc fusion as reference)
[17] = target: T1, recombinant human (rh) PD-L1 Fc fusion …; assay: competition ELISA: coated rhPD-L1 Fc fusion, scFv titrated, bound biotinylated PD-1 Fc fusion (15 ng/mL) detected with streptavidin-HRP
Description: Plates were blocked with 1% BSA and 0.05% Tween-20 in PBS, pH7.2. A serial dilution of scFvs was prepared, with eleven 1:3 dilutions starting at 1 mcg/mL, and added to plates. […] Background level was determined in the absence of PD-1. The ELISA was developed with TMB ELISA substrate solution (eBioscience, USA, cat. no. 00-4201-56).

[18] = target: T1, recombinant human (rh) PD-L1 Fc fusion …; assay: binding ELISA: coated rhPD-L1 Fc fusion, scFv1 in PBS without incubation, detected with Protein L-HRP
Description: as §2

B1: IgG_4 (antibody, V domains shown)
VH: EVQLVESGGGVVRPGGSLRLSCAASGFTFDDYGMTWVRQAPGRGLEWVSGIHWHGKRTGYADSVKGRFTISRDNAKKSLYLQMNSLKGEDTALYHCVRGGMSTGDWFDPWGQGTLVIVSS
VL: DIQMTQSPSSLSASLGDRVTITCRASQSINSYLNWYQQKPGKAPKLLIYVASSLQSGVPSRFSGSGSGTEFTLTISNLQPEDFATYYCQQSYSTPPITFGQGTRLEIKR
notes: Produced in CHO K1 cells; also called H2M8314N as described in WO2015/112805A1
B1 showed an IC50 [1] of 0.606 nM.

B2: IgG_1 (antibody, V domains shown)
VH: EVQLVESGGGLVQPGGSLRLSCTVSGIDLSSYTMGWVRQAPGKGLEWVGIISSGGRTYYASWAKGRFTISRDTSKNTVYLQMNSLRAEDTAVYYCARGRYTGYPYYFALWGQGTLVTVSS
VL: EIVMTQSPSTLSASVGDRVIITCQASEDIYSLLAWYQQKPGKAPKLLIYDASDLASGVPSRFSGSGSGAEFTLTISSLQPDDFATYYCQGNYGSSSSSSYGAVFGQGTKLEIKR
notes: Produced in CHO K1 cells; also called scFv1 converted into IgG format
B2 was tested, and the IC50 [1] was 0.327 nM, the Kd [2] was 0.00277 nM and the “fold tighter affinity than scFv1 to PD-L1” value [3] was about 3 fold.

B3: scFv1 (scFv)
scFv: EIVMTQSPSTLSASVGDRVIITCQASEDIYSLLAWYQQKPGKAPKLLIYDASDLASGVPSRFSGSGSGAEFTLTISSLQPDDFATYYCQGNYGSSSSSSYGAVFGQGTKLTVLGGGGGSGGGGSGGGGSGGGGSEVQLVESGGGLVQPGGSLRLSCTVSGIDLSSYTMGWVRQAPGKGLEWVGIISSGGRTYYASWAKGRFTISRDTSKNTVYLQMNSLRAEDTAVYYCARGRYTGYPYYFALWGQGTLVTVSS
notes: also called E. coli cell expressed scFv1
For B3, the binding result [4] was “no binding (tested: 5 mcg/mL)”, the Kd [5] was 0.0088 nM and the “EC50 (read off the curve)” value [6] was about 7 ng/mL. The “IC50 (read off the curve)” value [7] was 10 to 20 nM, the “EC50 (read off the curve)” value [8] was about 7 ng/mL and the “EC50 (read off the curve)” value [9] was about 7 ng/mL. For the same binder, the Kd [10] was 0.0128 nM, the binding result [11] was “no binding” and the “IC50, PD-1/PD-L1 blockade assay (luciferase, PD-L1 CHO cells and PD-1 Jurkat cells)” value [12] was 0.75 nM and 0.874 nM. The binding result [13] was “no binding (tested: 5 mcg/mL)”, the binding result [14] was “no binding (tested: 5 mcg/mL)” and the Kd [15] was 0.0033 nM. For the same binder, the fold tighter affinity than to human PD-L1 [16] was 2.7 fold, the “IC50 (read off the curve)” value [17] was about 1 nM and the “EC50 (read off the curve)” value [18] was about 7 ng/mL.

B4: CHO cell expressed scFv1 (scFv)
scFv: B3 scFv
B4 was tested, and the “IC50, PD-1/PD-L1 blockade assay (luciferase, PD-L1 CHO cells and PD-1 Jurkat cells)” value [12] was 0.602 nM.
